Results on 29 sequences are retold here after the supplement of paper PMC10567573.

± gives the standard deviation.

The nature of the data set: protein stability index of a GFP-peptide fusion (GPS, HEK-293T) (PSI 1-6); higher = more stable.
[1] abbreviates: treatment: DMSO, c terminus: a fixed tail appended.
Setting [2] is: treatment: MLN4924 1 uM, 8 h, c terminus: a fixed tail appended.
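Also: 24-mer peptide tiles fused after GFP, lentivirally expressed, FACS-sorted into six equal bins by GFP/DsRed ratio, decoded by Illumina sequencing, PSI is the read-weighted mean bin number.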

For SNSEKAKNIFRIRFHDPSPAQSHT [NET1], the protein stability index runs as follows: under setting [1], 3.13 ± 0.2; under setting [2], 3.06 ± 0.37.

The sequence LNMAKKSVDIVSSHWDLNHTHPSA [PLD5] showed a protein stability index under setting [1] of 3.1 ± 0.3 and a protein stability index under setting [2] of 3.2 ± 0.28.

For the sequence NSLITAPGEFSDASMSPDATKPSH [SMAD6], the protein stability index amounted to 5.07 ± 0.21 under setting [1] and 5.23 ± 0.18 under setting [2].

Regarding RRMAESLRIPEGPIDQGPAIGRVR [FUT8], the protein stability index worked out at 4.22 ± 0.17 under setting [1] and 4.43 ± 0.18 under setting [2].

With NGASWHTVAGSLNDFSYLHTNCFE [CPXM2], the protein stability index reads like this: under setting [1], 2.68 ± 0.47; under setting [2], 2.83 ± 0.23.

With YRQWHAKIFVENLRRQKSLRLEWE [IQUB], the protein stability index was found to be 2.29 ± 0.54 under setting [1] and 1.87 ± 0.28 under setting [2].

The sequence QFISRFLEGQSGVTIKHVACGDFF [NEK8] yielded a protein stability index under setting [1] of 2.51 ± 0.47 and a protein stability index under setting [2] of 2.39 ± 0.37.

For HIENGPFSLEQQLDDEDDDEEDCP [SRPK2], the protein stability index was found to be 5.44 ± 0.4 under setting [1] and 5.46 ± 0.2 under setting [2].

The sequence REMSKTFIIGELHPDDRPKLNKPP [CYB5A] gave a protein stability index under setting [1] of 3.95 ± 0.23 and a protein stability index under setting [2] of 4.05 ± 0.28.

For the sequence IWNILDLVVILLSIVAVGFHIFRT [PKD2L1], the protein stability index by setting is: under setting [1], 3.15 ± 0.64; under setting [2], 2.45 ± 0.84.

KLTQRLEEMTQRMEALENRLRYR [MATN2] had a protein stability index (treatment: DMSO, c terminus: native) of 2.7 ± 0.51 and a protein stability index (treatment: MLN4924 1 uM, 8 h, c terminus: native) of 2.79 ± 0.34.

In the case of QGTTVPAHRAILVARCEVMAAMFN [RHOBTB3], the protein stability index runs as follows: under setting [1], 2.1 ± 0.18; under setting [2], 2.17 ± 0.097.

AEGDSWEEEGFGSSSPVKSPAAPY [WEE1]: the protein stability index is 5.28 ± 0.13 under setting [1] and 5.19 ± 0.22 under setting [2].

VNEFGMSGEDPTAAAPVAEVPTAA [CLPTM1]: the protein stability index was determined as 5.49 ± 0.26 under setting [1] and 5.39 ± 0.19 under setting [2].

Consider SCNTWPSMPSYSSCTVTTVQPMDR [TBX5], for which the protein stability index runs as follows: under setting [1], 3.11 ± 0.14; under setting [2], 3.09 ± 0.19.

Regarding EMFTKPVVILPCQHNLCRKCASDI [TRIM55], the protein stability index is 2.96 ± 0.3 under setting [1] and 2.83 ± 0.47 under setting [2].

Turning to FKCRNKTSGQVVAVKKFVESEDDP [CDKL4], the protein stability index was 4.7 ± 0.089 under setting [1] and 4.94 ± 0.28 under setting [2].

In the case of TPEEQGELEPLKGNFDWEAIFDAG [FOXJ1], the protein stability index under setting [1] is 5.29 ± 0.28 and the protein stability index under setting [2] amounted to 5.41 ± 0.088.

For SDSMTDVPVDTGVAARTPAVEGLT [TPD52L2], the protein stability index came out at 5.3 ± 0.29 under setting [1] and 5.26 ± 0.15 under setting [2].

In the case of PKELSSFSFSMKGHEKTAKSKTRS [DLC1], the protein stability index was found to be 4.73 ± 0.31 under setting [1] and 4.78 ± 0.21 under setting [2].

As for ICFCCEEFQPAKCTDKENALKLFP [FAM189A2], the protein stability index by setting is: under setting [1], 2.37 ± 0.036; under setting [2], 2.58 ± 0.25.

Take GLPGSFIKEVQKGGPADLAGLEDE [PDZK1]: the protein stability index by setting is: under setting [1], 5.59 ± 0.14; under setting [2], 5.37 ± 0.25.

For the sequence ETLSGHGPLAQPLTLQVLVAGNPQ [ADAMTS4], the protein stability index came to 3 ± 0.43 under setting [1] and 2.98 ± 0.31 under setting [2].

Turning to ILVYDIANRWSFEGMDRWIKKIEE [RAB40A], the protein stability index was found to be 2.43 ± 0.38 under setting [1] and 2.34 ± 0.16 under setting [2].

As to ASLAAAKKQLADETLLKVDLENRC [LMNB1], the protein stability index turned out to be 4.35 ± 0.12 under setting [1] and 4.46 ± 0.24 under setting [2].

Take MAMQMQLEANADTSVEEESFGPQP [RAD51]: the protein stability index reads like this: under setting [1], 5.15 ± 0.25; under setting [2], 5.26 ± 0.13.

ALDERAKVLHEDKQTREQLHSISD [TRIM29]: the protein stability index is 5.25 ± 0.27 under setting [1] and 5.31 ± 0.37 under setting [2].

Regarding KCRSTISAEKCGPPPPIDNGDITS [CFHR2], the protein stability index is 4.52 ± 0.071 under setting [1] and 4.45 ± 0.29 under setting [2].

Take RAYQYTTLTSVQLLDCFGIPVLMA [SLC35F2]: the protein stability index is, setting by setting: under setting [1], 3.13 ± 0.64; under setting [2], 2.66 ± 0.85.
